Experimental data as given in patent publication US20080311034A1 (published 2008).

Columns and labels:
[1] = biological target: T1, recombinant human His-tagged FcγRIIIa (extracellular domain made at Centocor) (human, UniProt P08637 17-208); assay: ELISA
T1 construct: extracellular domain; also called CD16a; recombinant, soluble, human FcγRIIIa
Method: FcγRI (CD64) ELISA —50 μl of a 1 μg/ml solution of recombinant human His-tagged FcγRI (extracellular domain, R&D Systems #1257-FC-050) in ELISA buffer (PBS, pH 7.4, 4 mg/ml BSA, 0.01% Tween-20) was added to each well of HisGrab 96 well plates (Pierce #15142) (Powers G., Notebook 9006, pp. 166-168, 180-181). The plate was incubated with shaking for 3 hours. The plates were washed 3× with 300 μl of wash buffer (PBS, 0.01% Tween-20) on a plate washer. Serial dilutions of the CNTO860 antibody Fc-variant samples were made in ELISA buffer and 50 μl per well of each titration were added in duplicate to the FcγRI-coated plates. The plates were incubated with shaking for 1 hour. The plates were washed 3× with 300 μl of wash buffer on a plate washer. 50 μl of a 1:10,000 dilution of HRP-labeled goat F(ab′)₂ anti-human IgG F(ab′)₂ (Jackson Immunoresearch # 109-036-097) in ELISA buffer was added to each well. The plates were incubated with shaking for 30 minutes. The plates were washed 3× with 300 μl of wash buffer on the plate washer. 50 μl per well TMB substrate (RDI #RDI-TMBSU-1L) was added to each well and developed for 5 minutes. The reaction was stopped by adding 100 μl 0.2 N sulfuric acid. The plates were read at OD450 on an Envision plate reader.
FcγRIIIa (CD16a) ELISA—A human FcγRIIIa binding assay was done in ELISA format similar to the assay for FcγRI above. 50 μl of a 2 μg/ml solution of recombinant human His-tagged FcγRIIIa (extracellular domain made at Centocor) in ELISA buffer (PBS, 4 mg/ml BSA, 0.01% Tween-20) was added to each well of HisGrab 96 well plates (Pierce #15142) (Powers G., Notebook 10378, 19-23). The plate was incubated for 3 hours at room temp. The plates were blocked with 200 μl of Starting Block (Pierce #15142) for 30 min, and then washed 3× with 300 μl of wash buffer (PBS, 0.01% Tween-20) on a plate washer. Serial dilutions of the CNTO 860 test samples were made in Starting Block buffer and 50 μl per well of each titration were added in duplicate to the FcγRIIIa-coated plates. The plates were incubated for 1 hour. The plates were washed 3× with 300 μl of wash buffer on a plate washer. 50 μl of a 1:10,000 dilution of HRP-labeled goat F(ab′)2 anti-human IgG F(ab′)2 (Jackson Immunoresearch # 109-036-097) in Starting Block buffer was added to each well. The plates were incubated for 30 minutes.

[2] = biological target: T2, FcγRIIIa on NK cells of human PBMC (human, UniProt P08637 17-254); assay: cell-based or functional assay
T2 sequence (P08637 17-254): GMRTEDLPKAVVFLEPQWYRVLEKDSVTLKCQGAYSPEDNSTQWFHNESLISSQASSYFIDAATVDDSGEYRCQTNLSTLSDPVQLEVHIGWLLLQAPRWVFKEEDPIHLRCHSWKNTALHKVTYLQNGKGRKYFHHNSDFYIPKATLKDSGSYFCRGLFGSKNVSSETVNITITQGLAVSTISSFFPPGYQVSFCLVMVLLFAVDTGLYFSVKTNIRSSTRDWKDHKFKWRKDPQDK

[3] = biological target: T2, FcγRIIIa on NK cells of human PBMC; assay: cell-based or functional assay; remark: listed apart in the source
[4] = biological target: T3, recombinant polyhistidine tagged mouse FcγRI (R&D Systems) (mouse, UniProt P26151 25-297); assay: ELISA, His-tagged mouse receptor captured on copper-coated plate
T3 construct: Bought; also called murine FcγRI
T3 sequence (looked up): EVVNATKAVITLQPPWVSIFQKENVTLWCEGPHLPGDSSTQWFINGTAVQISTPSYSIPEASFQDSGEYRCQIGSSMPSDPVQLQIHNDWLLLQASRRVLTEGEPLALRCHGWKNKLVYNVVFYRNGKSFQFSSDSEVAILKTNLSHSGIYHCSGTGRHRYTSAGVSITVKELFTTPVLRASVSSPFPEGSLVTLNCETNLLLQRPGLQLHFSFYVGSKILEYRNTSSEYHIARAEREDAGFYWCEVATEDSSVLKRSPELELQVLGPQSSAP
Method: (§1) Commercially-available recombinant polyhistidine tagged mouse FcγRI, FcγRII, FcγRIII, and FcγRIV (R&D Systems) were diluted to 1 μg/ml in PBS and 100 μl/well was captured onto copper-coated plates (Pierce) overnight at 4° C. Plates were washed three times with wash buffer (0.15M NaCl, 0.02% Tween 20). Non-specific binding was blocked using 200 μl/well SuperBlock (Pierce) for 15 minutes at room temperature. Plates were washed three times as above. […] Plates were washed three times as above to remove unbound mAb. CNTO 860 variants that bound to plated receptors were detected using 100 μl/well HRP-labeled goat F(ab′)₂ anti-human IgG F(ab′)₂ (Jackson ImmunoResearch) diluted 1:5,000 in PBS incubated at room temperature for 1 hour. Plates were washed five times using wash buffer as above, and developed using 100 μl/well TMB Stable Stop substrate (Fitzgerald Industries) stopped with 0.5M HCl. Absorbance was detected at 450 nm.
(§2) All binding assays were in an ELISA format, with recombinant soluble receptor captured on coated EIA plates.

[5] = biological target: T4, recombinant polyhistidine tagged mouse FcγRII (R&D Systems) (mouse, UniProt P08101 40-217, limits assumed); assay: as above
T4 construct: Bought; also called FcRII
T4 sequence (looked up): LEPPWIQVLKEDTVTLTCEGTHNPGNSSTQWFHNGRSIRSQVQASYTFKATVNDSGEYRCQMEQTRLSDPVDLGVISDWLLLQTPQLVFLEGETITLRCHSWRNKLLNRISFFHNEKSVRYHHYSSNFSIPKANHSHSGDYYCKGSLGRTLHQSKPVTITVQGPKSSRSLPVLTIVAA
Method: as §1, §2

[6] = biological target: T5, recombinant polyhistidine tagged mouse FcγRIII (R&D Systems) (mouse, UniProt P08508 31-215); assay: as above
T5 construct: Bought
T5 sequence (looked up): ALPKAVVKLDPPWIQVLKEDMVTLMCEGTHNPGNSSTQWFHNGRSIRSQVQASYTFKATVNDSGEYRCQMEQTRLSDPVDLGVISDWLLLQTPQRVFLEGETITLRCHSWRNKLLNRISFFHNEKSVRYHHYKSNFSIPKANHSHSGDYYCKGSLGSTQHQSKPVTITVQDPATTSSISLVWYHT
Method: as §1, §2

[7] = biological target: T6, recombinant polyhistidine tagged mouse FcγRIV (R&D Systems) (mouse, UniProt A0A0B4J1G0 21-203); assay: as above
T6 construct: Bought
T6 sequence: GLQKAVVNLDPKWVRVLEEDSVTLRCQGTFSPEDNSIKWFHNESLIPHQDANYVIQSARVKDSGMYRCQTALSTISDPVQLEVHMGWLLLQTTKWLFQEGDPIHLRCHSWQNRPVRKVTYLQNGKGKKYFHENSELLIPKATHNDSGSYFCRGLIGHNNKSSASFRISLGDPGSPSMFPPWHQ
Method: as §1, §2

T1 sequence (P08637 17-208): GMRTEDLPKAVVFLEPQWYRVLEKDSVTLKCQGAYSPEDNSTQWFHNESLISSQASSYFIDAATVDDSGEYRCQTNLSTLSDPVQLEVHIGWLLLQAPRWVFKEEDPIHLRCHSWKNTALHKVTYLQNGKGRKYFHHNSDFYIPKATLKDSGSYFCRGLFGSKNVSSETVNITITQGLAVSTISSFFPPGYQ

B1: CHO-CNTO 860 I332E (antibody)
heavy: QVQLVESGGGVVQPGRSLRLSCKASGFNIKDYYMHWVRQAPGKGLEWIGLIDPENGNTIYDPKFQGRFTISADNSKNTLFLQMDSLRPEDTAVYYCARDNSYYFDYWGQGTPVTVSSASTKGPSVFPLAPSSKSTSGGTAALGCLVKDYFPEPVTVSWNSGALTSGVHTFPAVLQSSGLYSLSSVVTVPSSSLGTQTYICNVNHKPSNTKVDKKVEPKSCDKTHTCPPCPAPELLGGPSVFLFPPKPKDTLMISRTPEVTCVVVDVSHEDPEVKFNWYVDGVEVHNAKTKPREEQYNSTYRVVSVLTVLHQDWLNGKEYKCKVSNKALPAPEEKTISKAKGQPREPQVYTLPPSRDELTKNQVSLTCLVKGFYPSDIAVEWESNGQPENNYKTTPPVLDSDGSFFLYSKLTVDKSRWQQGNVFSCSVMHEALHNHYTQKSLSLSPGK
light: DIQMTQSPSSLSASVGDRVTITCKASQDIRKYLNWYQQKPGKAPKLLIYYATSLADGVPSRFSGSGSGTDYTFTISSLQPEDIATYYCLQHGESPYTFGQGTKLEITRTVAAPSVFIFPPSDEQLKSGTASVVCLLNNFYPREAKVQWKVDNALQSGNSQESVTEQDSKDSTYSLSSTLTLSKADYEKHKVYACEVTHQGLSSPVTKSFNRGEC
modifications: N-linked glycan at Asn297 of the heavy chain (CHO-type, highly fucosylated); not carried by the letters
notes: IgG1/kappa Fc variant; transiently expressed in CHO cells (p4157/p4146); also called I332E (CHO cell-derived); I332E from CHO cells; copies: 2 + 2
fold better binding than WT from CHO cells [1]: 6 fold
fold potency in ADCC against CHO-CNTO 860 WT [2]: ~7 fold
EC25 (ng/ml), ADCC of HCT116 cells by human PBMC [3]: 0.75 ng/mL
ECOD1 (concentration required for an O.D. value of 1.0) [4]: 4000 ng/mL
ECOD1 (concentration required for an O.D. value of 1.0) [5]: 1500 ng/mL
ECOD1 (concentration required for an O.D. value of 1.0) [6]: 1600 ng/mL
ECOD1 (concentration required for an O.D. value of 1.0) [7]: 13 ng/mL

B2: YB2/0-CNTO 860 A330I/I332E (antibody, human IgG1, kappa)
heavy: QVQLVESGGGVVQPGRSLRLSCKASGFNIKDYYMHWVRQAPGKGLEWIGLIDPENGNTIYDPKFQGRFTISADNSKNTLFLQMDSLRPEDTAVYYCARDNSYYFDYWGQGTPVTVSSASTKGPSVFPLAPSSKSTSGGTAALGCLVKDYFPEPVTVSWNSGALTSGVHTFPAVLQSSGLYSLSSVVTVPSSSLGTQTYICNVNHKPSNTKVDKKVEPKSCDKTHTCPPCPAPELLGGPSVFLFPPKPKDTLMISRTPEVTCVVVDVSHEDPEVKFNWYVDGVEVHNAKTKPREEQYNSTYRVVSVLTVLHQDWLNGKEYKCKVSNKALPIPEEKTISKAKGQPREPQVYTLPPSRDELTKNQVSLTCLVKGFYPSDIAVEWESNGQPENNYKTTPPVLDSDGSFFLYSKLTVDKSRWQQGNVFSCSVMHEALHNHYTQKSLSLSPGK
light: B1 light
modifications: N-linked glycan at heavy chain Asn297 (YB2/0-type, low fucose); not carried by the letters
notes: IgG1/kappa Fc variant; stably expressed in YB2/0 cells (p4178/p2402); EU numbering; also called A330I/I332E (YB2/0 cell-derived); A330I/I332E from YB2/0 cells; copies: 2 + 2
fold better binding than WT from YB2/0 cells [1]: 6 fold
EC25 (ng/ml), ADCC of HCT116 cells by human PBMC [3]: 0.15 ng/mL
ECOD1 (concentration required for an O.D. value of 1.0) [4]: 10000 ng/mL
ECOD1 (concentration required for an O.D. value of 1.0) [5]: 3000 ng/mL
ECOD1 (concentration required for an O.D. value of 1.0) [6]: 3000 ng/mL
ECOD1 (concentration required for an O.D. value of 1.0) [7]: 7 ng/mL

B3: YB2/0-CNTO 860 I332E (antibody, human IgG1, kappa)
heavy: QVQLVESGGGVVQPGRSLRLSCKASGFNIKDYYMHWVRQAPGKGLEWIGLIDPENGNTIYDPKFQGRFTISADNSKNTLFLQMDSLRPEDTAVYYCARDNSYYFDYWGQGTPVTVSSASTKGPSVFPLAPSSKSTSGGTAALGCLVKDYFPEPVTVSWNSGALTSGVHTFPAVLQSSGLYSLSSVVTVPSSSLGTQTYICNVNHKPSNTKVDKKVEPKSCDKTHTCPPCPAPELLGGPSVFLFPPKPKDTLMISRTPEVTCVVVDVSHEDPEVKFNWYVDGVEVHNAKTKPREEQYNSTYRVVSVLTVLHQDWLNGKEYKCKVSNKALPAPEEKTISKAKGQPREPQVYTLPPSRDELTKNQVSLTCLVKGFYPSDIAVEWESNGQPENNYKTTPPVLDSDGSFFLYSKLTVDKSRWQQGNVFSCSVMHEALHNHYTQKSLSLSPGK
light: B1 light
modifications: Heavy chain N297 carries the YB2/0-type low-fucose N-linked glycan; not carried by the letters.
notes: IgG1/kappa Fc variant; stably expressed in YB2/0 cells (p4148/p2402), low-fucose glycan; EU numbering; also called I332E (YB2/0 cell-derived); I332E from YB2/0 cells; copies: 2 + 2
fold better binding than WT from CHO [1]: ~30 fold
fold better binding than WT from YB2/0 cells [1]: ~10 fold
fold change of the concentration for 25% lysis against WT CNTO860 from CHO host cells [2]: ~100 fold
fold potency in ADCC against YB2/0-CNTO 860 WT [2]: ~8 fold
EC25 (ng/ml), ADCC of HCT116 cells by human PBMC [3]: 0.3 ng/mL
ECOD1 (concentration required for an O.D. value of 1.0) [4]: 5000 ng/mL
ECOD1 (concentration required for an O.D. value of 1.0) [5]: 700 ng/mL
ECOD1 (concentration required for an O.D. value of 1.0) [6]: 600 ng/mL
ECOD1 (concentration required for an O.D. value of 1.0) [7]: 7 ng/mL

B4: CHO-CNTO 860 I332E/A330I (antibody, human IgG1, kappa)
heavy: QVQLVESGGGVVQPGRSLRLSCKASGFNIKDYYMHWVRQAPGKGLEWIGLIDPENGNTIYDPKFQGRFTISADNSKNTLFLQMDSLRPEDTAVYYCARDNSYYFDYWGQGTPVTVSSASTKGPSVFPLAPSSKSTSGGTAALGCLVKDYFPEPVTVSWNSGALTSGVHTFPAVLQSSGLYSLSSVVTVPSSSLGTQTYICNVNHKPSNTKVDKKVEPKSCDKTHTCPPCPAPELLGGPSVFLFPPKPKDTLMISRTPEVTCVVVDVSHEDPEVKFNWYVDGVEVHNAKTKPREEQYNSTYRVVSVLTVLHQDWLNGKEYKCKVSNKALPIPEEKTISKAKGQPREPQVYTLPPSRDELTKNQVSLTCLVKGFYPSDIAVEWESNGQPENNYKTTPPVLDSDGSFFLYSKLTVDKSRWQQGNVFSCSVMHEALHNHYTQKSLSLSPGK
light: B1 light
modifications: Heavy chain N297 carries the CHO-type N-linked glycan (about 95% fucosylated); not carried by the letters.
notes: IgG1/kappa Fc variant; transiently expressed in CHO cells (p4185/p4146); EU numbering; also called A330I/I332E (CHO cell-derived); A330I/I332E variant from CHO cells; copies: 2 + 2
fold better binding than WT from CHO cells [1]: ~8 fold
EC25 (ng/ml), ADCC of HCT116 cells by human PBMC [3]: 1.2 ng/mL
ECOD1 (concentration required for an O.D. value of 1.0) [4]: 3000 ng/mL
ECOD1 (concentration required for an O.D. value of 1.0) [5]: 600 ng/mL
ECOD1 (concentration required for an O.D. value of 1.0) [6]: 800 ng/mL
ECOD1 (concentration required for an O.D. value of 1.0) [7]: 18 ng/mL
